For one molecule, IC50 results are on record in US20260139007A1, “EPHA4 ANTAGONISTS AND USES THEREOF” (SANFORD BURNHAM PREBYS MEDICAL DISCOVERY INSTITUTE, priority 2023, published 2026).

The term IC50 denotes the concentration needed to halve the response being measured. The low end stands for inhibition by little substance, the high end for a need for much substance.

For assay [1], the target named is EphA4 Fc (human EphA4 Fc, #CJ75, Novoprotein, or mouse EphA4 Fc, #641-A4, R&D Systems/BioTechne) (human or mouse) (UniProt P54764). Put plainly: competition ELISA, inhibition of ephrin-A5 AP binding to immobilized EphA4 Fc (Table 2, repeats Table 1).
Chain of EphA4 Fc (human EphA4 Fc, #CJ75, Novoprotein, or mouse EphA4 Fc, #641-A4, R&D Systems/BioTechne) (human or mouse) (P54764 20-547): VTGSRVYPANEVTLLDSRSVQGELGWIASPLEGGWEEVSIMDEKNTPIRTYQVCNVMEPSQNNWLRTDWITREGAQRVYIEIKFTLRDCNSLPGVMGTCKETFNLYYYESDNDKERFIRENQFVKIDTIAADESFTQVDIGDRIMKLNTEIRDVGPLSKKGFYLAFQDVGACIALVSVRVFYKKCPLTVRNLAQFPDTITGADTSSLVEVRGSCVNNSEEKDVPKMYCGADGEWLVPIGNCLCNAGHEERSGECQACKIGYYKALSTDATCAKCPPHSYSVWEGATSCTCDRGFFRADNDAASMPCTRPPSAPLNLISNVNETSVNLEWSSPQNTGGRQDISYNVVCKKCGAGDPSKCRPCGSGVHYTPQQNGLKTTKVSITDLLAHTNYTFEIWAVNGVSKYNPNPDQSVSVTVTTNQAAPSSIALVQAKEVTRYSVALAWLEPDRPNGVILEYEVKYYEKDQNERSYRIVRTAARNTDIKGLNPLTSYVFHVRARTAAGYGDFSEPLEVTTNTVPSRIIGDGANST
For assay [2] the target is unchanged. Put plainly: competition ELISA, inhibition of ephrin-A5 AP binding to immobilized EphA4 Fc. (In general: An ELISA detects its analyte on a solid surface through an enzyme-linked reagent.)

B1: APY-d3-PEG4 (peptide)
peptide: XPYCVYRXSWSCXXX
modifications: β-alanine at 1 and 8; disulfide bond Cys4-Cys12 (Cyc (4,12)); three 6-aminohexanoic acid (Ahx) residues and propargyl-glycine (Pra) after Cys12; 30 kDa methoxy-PEG on Pra through a triazole (click chemistry); free C-terminal acid (-OH)
As for B1, the IC50 in assay [1] and in assay [2] was 20 nM each time.
